Values of other authors as cited in patent US8673289B2, “Attenuated uracil auxotroph of an apicomplexan and use thereof” (priority 2007, dated 2014).
Where two headings read alike, the source gives them in different places.

Test system: E. coli CPS
Settings: cited from earlier work

| Molecule | Effect on CPS or CPSII (effect on UMP repression) | Effect on CPS or CPSII (effect on ornithine activation) | Effect on CPS or CPSII (effect on IMP activation) |
| --- | --- | --- | --- |
| E. c. H781K: E. coli CPS with K-loop mutation H781K (protein, UniProt P0A6F1 1-382; P00968 2-1073, looked up, variant H781K, mutation in large subunit) Carbamoyl phosphate synthase … 1: MIKSALLVLEDGTQFHGRAIGATGSAVGEVVFNTSMTGYQEILTDPSYSRQIVTLTYPHIGNVGTNDADEESSQVHAQGLVIRDLPLIASNFRNTEDLSSYLKRHNIVAIADIDTRKLTRLLREKGAQNGCIIAGDNPDAALALEKARAFPGLNGMDLAKEVTTAEAYSWTQGSWTLTGGLPEAKKEDELPFHVVAYDFGAKRNILRMLVDRGCRLTIVPAQTSAEDVLKMNPDGIFLSNGPGDPAPCDYAITAIQKFLETDIPVFGICLGHQLLALASGAKTVKMKFGHHGGNHPVKDVEKNVVMITAQNHGFAVDEATLPANLRVTHKSLFDGTLQGIHRTDKPAFSFQGHPEASPGPHDAAPLFDHFIELIEQYRKTAK Carbamoyl phosphate synthase … 2: PKRTDIKSILILGAGPIVIGQACEFDYSGAQACKALREEGYRVILVNSNPATIMTDPEMADATYIEPIHWEVVRKIIEKERPDAVLPTMGGQTALNCALELERQGVLEEFGVTMIGATADAIDKAEDRRRFDVAMKKIGLETARSGIAHTMEEALAVAADVGFPCIIRPSFTMGGSGGGIAYNREEFEEICARGLDLSPTKELLIDESLIGWKEYEMEVVRDKNDNCIIVCSIENFDAMGIHTGDSITVAPAQTLTDKEYQIMRNASMAVLREIGVETGGSNVQFAVNPKNGRLIVIEMNPRVSRSSALASKATGFPIAKVAAKLAVGYTLDELMNDITGGRTPASFEPSIDYVVTKIPRFNFEKFAGANDRLTTQMKSVGEVMAIGRTQQESLQKALRGLEVGATGFDPKVSLDDPEALTKIRRELKDAGADRIWYIADAFRAGLSVDGVFNLTNIDRWFLVQIEELVRLEEKVAEVGITGLNADFLRQLKRKGFADARLAKLAGVREAEIRKLRDQYDLHPVYKRVDTCAAEFATDTAYMYSTYEEECEANPSTDREKIMVLGGGPNRIGQGIEFDYCCVHASLALREDGYETIMVNCNPETVSTDYDTSDRLYFEPVTLEDVLEIVRIEKPKGVIVQYGGQTPLKLARALEAAGVPVIGTSPDAIDRAEDRERFQHAVERLKLKQPANATVTAIEMAVEKAKEIGYPLVVRPSYVLGGRAMEIVYDEADLRRYFQTAVSVSNDAPVLLDHFLDDAVEVDVDAICDGEMVLIGGIMEKIEQAGVHSGDSACSLPAYTLSQEIQDVMRQQVQKLAFELQVRGLMNVQFAVKNNEVYLIEVNPRAARTVPFVSKATGVPLAKVAARVMAGKSLAEQGVTKEVIPPYYSVKEVVLPFNKFPGVDPLLGPEMRSTGEVMGVGRTFAEAFAKAQLGSNSTMKKHGRALLSVREGDKERVVDLAAKLLKQGFELDATHGTAIVLGEAGINPRLVNKVHEGRPHIQDRIKNGEYTYIINTTSGRRAIEDSRVIRRSALQYKVHYDTTLNGGFATAMALNADATEKVISVQEMHAQIK | Reduces UMP repression | Reduces ornithine activation |  |
| E. c. T974A: E. coli CPS with regulatory domain mutation T974A (protein, UniProt P0A6F1 1-382; P00968 2-1073, looked up, variant T974A, mutation in large subunit) Carbamoyl phosphate synthase … 1: MIKSALLVLEDGTQFHGRAIGATGSAVGEVVFNTSMTGYQEILTDPSYSRQIVTLTYPHIGNVGTNDADEESSQVHAQGLVIRDLPLIASNFRNTEDLSSYLKRHNIVAIADIDTRKLTRLLREKGAQNGCIIAGDNPDAALALEKARAFPGLNGMDLAKEVTTAEAYSWTQGSWTLTGGLPEAKKEDELPFHVVAYDFGAKRNILRMLVDRGCRLTIVPAQTSAEDVLKMNPDGIFLSNGPGDPAPCDYAITAIQKFLETDIPVFGICLGHQLLALASGAKTVKMKFGHHGGNHPVKDVEKNVVMITAQNHGFAVDEATLPANLRVTHKSLFDGTLQGIHRTDKPAFSFQGHPEASPGPHDAAPLFDHFIELIEQYRKTAK Carbamoyl phosphate synthase … 2: PKRTDIKSILILGAGPIVIGQACEFDYSGAQACKALREEGYRVILVNSNPATIMTDPEMADATYIEPIHWEVVRKIIEKERPDAVLPTMGGQTALNCALELERQGVLEEFGVTMIGATADAIDKAEDRRRFDVAMKKIGLETARSGIAHTMEEALAVAADVGFPCIIRPSFTMGGSGGGIAYNREEFEEICARGLDLSPTKELLIDESLIGWKEYEMEVVRDKNDNCIIVCSIENFDAMGIHTGDSITVAPAQTLTDKEYQIMRNASMAVLREIGVETGGSNVQFAVNPKNGRLIVIEMNPRVSRSSALASKATGFPIAKVAAKLAVGYTLDELMNDITGGRTPASFEPSIDYVVTKIPRFNFEKFAGANDRLTTQMKSVGEVMAIGRTQQESLQKALRGLEVGATGFDPKVSLDDPEALTKIRRELKDAGADRIWYIADAFRAGLSVDGVFNLTNIDRWFLVQIEELVRLEEKVAEVGITGLNADFLRQLKRKGFADARLAKLAGVREAEIRKLRDQYDLHPVYKRVDTCAAEFATDTAYMYSTYEEECEANPSTDREKIMVLGGGPNRIGQGIEFDYCCVHASLALREDGYETIMVNCNPETVSTDYDTSDRLYFEPVTLEDVLEIVRIEKPKGVIVQYGGQTPLKLARALEAAGVPVIGTSPDAIDRAEDRERFQHAVERLKLKQPANATVTAIEMAVEKAKEIGYPLVVRPSYVLGGRAMEIVYDEADLRRYFQTAVSVSNDAPVLLDHFLDDAVEVDVDAICDGEMVLIGGIMEHIEQAGVHSGDSACSLPAYTLSQEIQDVMRQQVQKLAFELQVRGLMNVQFAVKNNEVYLIEVNPRAARTVPFVSKATGVPLAKVAARVMAGKSLAEQGVTKEVIPPYYSVKEVVLPFNKFPGVDPLLGPEMRSTGEVMGVGRTFAEAFAKAQLGSNSTMKKHGRALLSVREGDKERVVDLAAKLLKQGFELDAAHGTAIVLGEAGINPRLVNKVHEGRPHIQDRIKNGEYTYIINTTSGRRAIEDSRVIRRSALQYKVHYDTTLNGGFATAMALNADATEKVISVQEMHAQIK | Abolishes UMP repression | Reduces ornithine activation | Abolishes IMP activation |
